Assay results reported in article PMC5993284, “Peptide inhibitors of the anaphase promoting-complex that cause sensitivity to microtubule poison” (PLoS ONE, 2018).
Several values for one entry are separate records, joined by “and”; a condition that tells them apart may be missing. Equal values may be shown once. Read-outs that look alike come from different tables or passages of the source. Ends that are not written are not given here.

Target: T1, APC/C^Cdc20 (Saccharomyces cerevisiae, UniProt P16522+P53886)
T1 construct: constructed within full-length Cdc20 by site-directed mutagenesis for analysis in vitro in the APC/C^Cdc20 assay; The APC/C was purified for enzyme assays from 1 mL of TAP-tagged Cdc16 yeast extract (SCSY51); made in house; host or cells: Cdc20: in vitro transcription/translation in rabbit reticulocyte lysate, used unpurified; APC/C: S. cerevisiae strain SCSY51 (Cdc16-TAP) extract, captured on IgG magnetic beads
Assay: biochemical
Format: biochemical
Settings: for inhibition of APC/C^Cdc20 activity (in words): 220 μM peptide, time course 0-60 minutes, vs buffer only, n = 3; for ubiquitinated Pds1 species at 60 minutes (in words): inhibitor at about 4-times the IC50, S2 Fig C
Method: Full-length, radio-labeled protein purifications were preformed as previously described. ^35S-Pds1 was prepared in a 500 μL IVT/T (In Vitro Transcription/Translation) reaction (Promega, USA), which contained 400 μL rabbit reticulocyte lysate, 20 μL of L-^35S-methionine (PerkinElmer, USA), 10 μg of plasmid DNA, and the remaining volume as nuclease-free ddH2O as recommended by the manufacturer. The reaction mixture was incubated for 2 hours at room temperature and gently mixed every 30 minutes. The reaction was added to pre-equilibrated IgG Sepharose beads (GE Healthcare, USA) in Bio-spin disposable chromatography columns (Bio-Rad, USA) for binding for 2 hours at room temperature. To ensure efficient binding, the beads were re-suspended several times every 30 minutes. After binding, the beads were washed with 5 mL wash buffer, containing 200 mM 4-(2-hydroxyethyl)-1-piperazineethanesulfonic acid (HEPES) at pH 8.0, 150 mM NaCl, 10% (v/v) glycerol, and 1 mM dithiothreitol (DTT). The ^35S-Pds1 was cleaved from the beads using TEV (Tobacco Etch Virus) protease in 1x TEV buffer (Invitrogen, USA) for 2 hours at room temperature, and the mixture was re-suspended several times every 30 minutes to promote efficient cleavage. The elution was collected and concentrated by employing an Amicon Ultra filter column (Millipore, Ireland). The concentrated ^35S-Pds1 was collected in a new tube, and stored at -20 °C.
The production of Cdc20 or Cdh1 was prepared by IVT/T reactions, where 16 μL of rabbit reticulocyte lysate, 20 μM L-methionine, 0.4 μg of plasmid DNA, and a volume of nuclease-free ddH2O for a total volume of 20 μL. This freshly synthesized Cdc20 or Cdh1 protein was used directly in all APC/C assays after a 1-hour synthesis reaction at room temperature. The APC/C was purified for enzyme assays from 1 mL of TAP-tagged Cdc16 yeast extract (SCSY51) where extract was mixed with 50 μL 50:50 slurry magnetic beads (Invitrogen, Norway) for 2 hours at 4 °C. After incubation, the beads were washed with 3 mL APC/C wash buffer (200 mM of HEPES, 150 mM of NaCl and 10% (v/v) of glycerol). APC/C bound to IgG magnetic beads was used directly in the enzyme assays.
APC/C assays were performed by adding the reaction contents in following order: 4.3 μL of QAH buffer, 20 μL of rabbit reticulocyte lysate containing Cdc20 or Cdh1 with or without an additional volume of recombinant checkpoint protein(s) or inhibitor peptides, 2.4 μL ubiquitin aldehyde (Boston Biochem, USA), APC/C, 16 μL pre-charged E1/E2/ATP/ubiquitin mix, and 13.3 μL of ^35S-Pds1 with QAH buffer (20 mM HEPES at pH 8.0, 100 mM NaCl, and 1 mM MgCl2). The E1/E2/ATP/ubiquitin mix were pre-charged by mixing 1 μL of E1 (Boston Biochem, USA), 1 μL of E2 (Boston Biochem, USA), 14.4 μL of ATP, 14.4 μL of […] (Boston Biochem, USA), and 17.2 μL of QAH buffer and incubated for 15 minutes at room temperature. Approximately 15 μL of samples were taken out at each time point, and the reaction was stopped by the addition of 2x protein sample buffer (125 mM Tris-HCl pH 6.8, 4% SDS, 20% glycerol, and 0.002% bromophenol blue, with 10% (final v/v) 2-mercaptoethanol added in fresh directly before use).
For inhibitor titration and time-course experiments, recombinant Bub3, Mad2, Mad3, and the Mad3-Bub3 complex were expressed and purified as previously described. […] For inhibition of APC/C the co-factor Cdc20 or Cdh1 was made fresh by IVT/T, and pure recombinant checkpoint proteins or inhibitor peptides were added to the IVT/T mixture and incubated for an additional hour at room temperature. In titrations, a dilution series of the checkpoint protein(s) were made before incubation with the Cdc20 co-factor. SDS-PAGE was performed using stand protocols (BioRad, USA).

[1] = MCC subunits, 4-parameter Hill fit, ± sd
[2] = MCC subunits, titration, 4-parameter Hill fit, ± sd from three independent titrations, 35S-Pds1 substrate, read-out: IC50

Molecule | inhibition of APC/C^Cdc20 activity (in words) (35S-Pds1 substrate) | Hill coefficient [1] | IC50 [2] | further results
DS17: DS17 (Cdc20 197–212) peptide derived from the N-terminal portion of the DQ36 peptide (DMNKRILQYMPEPPKC; UniProt P26309 197-212, looked up, fragment) | no significant inhibition was observed |  |  | 
C-box1: C-box containing peptide C-box1 (130–167) (TTSREVDEQFTVAADRYIPILQGASQNKVDPETLHEAL; UniProt P26309 130-167, looked up, fragment) | A significant level of APC/C^Cdc20 inhibition was observed only in the presence of the C-box2 peptide |  |  | 
DMNKRILQYMPEPPKCSSLRQKSYIMKKRTHYSYQQ [DQ36] |  |  |  | IC50: ~150000 nM; IC50 weaker than that of PQ65 (times) (ratio of IC50 relative to PQ65): about 3 times
EV25: C-box containing peptide EV25 (Cdc20 134–158) (EVDEQFTVAADRYIPILQGASQNKV; UniProt P26309 134-158, looked up, fragment) | A significant level of APC/C^Cdc20 inhibition was observed only in the presence of the C-box2 peptide |  |  | 
AV16: C-box containing peptide AV16 (Cdc20 143–158) (ADRYIPILQGASQNKV; UniProt P26309 143-158, looked up, fragment) | A significant level of APC/C^Cdc20 inhibition was observed only in the presence of the C-box2 peptide |  |  | 
MKVLDDWFSRKFSKAVHGNNHGTISLSTLSYIRVHKLVK [Tyc1] |  |  |  | IC50: ~50000 nM
PL29: PL29 (Cdc20 167–196) that does not contain the KILR-motif (LPPPNASPISHLRAQTKIVFKQNVAEACGL; UniProt P26309 167-196, looked up, fragment) | displayed the ability to inhibit APC/C^Cdc20 activity |  |  | 
Mad2: pure recombinant MCC component Mad2 (protein) MSQSISLKGSTRTVTEFFEYSINSILYQRGVYPAEDFVTVKKYDLTLLKTHDDELKDYIRKILLQVHRWLLGGKCNQLVLCIVDKDEGEVVERWSFNVQHISGNSNGQDDVVDLNTTQSQIRALIRQITSSVTFLPELTKEGGYTFTVLAYTDADAKVPLEWADSNSKEIPDGEVVQFKTFSTNDHKVGAQVSYKY | yields a high level of inhibition | 2.4 ± 0.3 and 2.4 | 2300 ± 500 nM | ubiquitinated Pds1 species at 60 minutes (in words): the small amount of Pds1 that is ubiquitinated appears to be fully poly-ubiquitinated
Bub3: pure recombinant MCC component Bub3 (protein, UniProt P26449 1-341, looked up) Spindle assembly checkpoint …: MQIVQIEQAPKDYISDIKIIPSKSLLLITSWDGSLTVYKFDIQAKNVDLLQSLRYKHPLLCCNFIDNTDLQIYVGTVQGEILKVDLIGSPSFQALTNNEANLGICRICKYGDDKLIAASWDGLIEVIDPRNYGDGVIAVKNLNSNNTKVKNKIFTMDTNSSRLIVGMNNSQVQWFRLPLCEDDNGTIEESGLKYQIRDVALLPKEQEGYACSSIDGRVAVEFFDDQGDDYNSSKRFAFRCHRLNLKDTNLAYPVNSIEFSPRHKFLYTAGSDGIISCWNLQTRKKIKNFAKFNEDSVVKIACSDNILCLATSDDTFKTNAAIDQTIELNASSIYIIFDYEN |  | 2.2 ± 0.4 and 2.2 | 8700 ± 2400 nM | 
Mad3-Bub3 complex: recombinant Mad3-Bub3 complex (protein, UniProt P47074 1-515; P26449 1-341, looked up) Spindle assembly checkpoint … 1: MKAYAKKRISYMPSSPSQNVINFEEIETQKENILPLKEGRSAAALSKAIHQPLVEINQVKSSFEQRLIDELPALSDPITLYLEYIKWLNNAYPQGGNSKQSGMLTLLERCLSHLKDLERYRNDVRFLKIWFWYIELFTRNSFMESRDIFMYMLRNGIGSELASFYEEFTNLLIQKEKFQYAVKILQLGIKNKARPNKVLEDRLNHLLRELGENNIQLGNEISMDSLESTVLGKTRSEFVNRLELANQNGTSSDVNLTKNNVFVDGEESDVELFETPNRGVYRDGWENFDLKAERNKENNLRISLLEANTNLGELKQHEMLSQKKRPYDEKLPIFRDSIGRSDPVYQMINTKDQKPEKIDCNFKLIYCEDEESKGGRLEFSLEEVLAISRNVYKRVRTNRKHPREANLGQEESANQKEAEAQSKRPKISRKALVSKSLTPSNQGRMFSGEEYINCPMTPKGRSTETSDIISAVKPRQLTPILEMRESNSFSQSKNSEIISDDDKSSSSFISYPPQR Spindle assembly checkpoint … 2: MQIVQIEQAPKDYISDIKIIPSKSLLLITSWDGSLTVYKFDIQAKNVDLLQSLRYKHPLLCCNFIDNTDLQIYVGTVQGEILKVDLIGSPSFQALTNNEANLGICRICKYGDDKLIAASWDGLIEVIDPRNYGDGVIAVKNLNSNNTKVKNKIFTMDTNSSRLIVGMNNSQVQWFRLPLCEDDNGTIEESGLKYQIRDVALLPKEQEGYACSSIDGRVAVEFFDDQGDDYNSSKRFAFRCHRLNLKDTNLAYPVNSIEFSPRHKFLYTAGSDGIISCWNLQTRKKIKNFAKFNEDSVVKIACSDNILCLATSDDTFKTNAAIDQTIELNASSIYIIFDYEN |  | 7.3 ± 2.6 | 89 ± 4 nM | Hill coefficient (MCC subunits, 4-parameter Hill fit, ± sd, listed as Mad3-Bub3): 7.3; Hill coefficient (Mad3-Bub3 complex in the presence of 0.5 μM Mad2, ± sd): 8.2 ±1.9; IC50 (Mad3-Bub3 complex in the presence of 0.5 μM Mad2, ± sd, three independent titrations, read-out: IC50): 70 ± 3 nM; ubiquitinated Pds1 species at 60 minutes (in words): the Pds1 accumulated in these lower molecular weight species
Mad3: pure recombinant MCC component Mad3 (protein, UniProt P47074 1-515, looked up) Spindle assembly checkpoint …: MKAYAKKRISYMPSSPSQNVINFEEIETQKENILPLKEGRSAAALSKAIHQPLVEINQVKSSFEQRLIDELPALSDPITLYLEYIKWLNNAYPQGGNSKQSGMLTLLERCLSHLKDLERYRNDVRFLKIWFWYIELFTRNSFMESRDIFMYMLRNGIGSELASFYEEFTNLLIQKEKFQYAVKILQLGIKNKARPNKVLEDRLNHLLRELGENNIQLGNEISMDSLESTVLGKTRSEFVNRLELANQNGTSSDVNLTKNNVFVDGEESDVELFETPNRGVYRDGWENFDLKAERNKENNLRISLLEANTNLGELKQHEMLSQKKRPYDEKLPIFRDSIGRSDPVYQMINTKDQKPEKIDCNFKLIYCEDEESKGGRLEFSLEEVLAISRNVYKRVRTNRKHPREANLGQEESANQKEAEAQSKRPKISRKALVSKSLTPSNQGRMFSGEEYINCPMTPKGRSTETSDIISAVKPRQLTPILEMRESNSFSQSKNSEIISDDDKSSSSFISYPPQR |  | 5.0 ± 0.9 and 5.0 | 240 ± 10 nM | 
